Source: patent US20080108569A1, “Compositions and Methods for Treating Diseases Associated With Phlpp” (The Regents of the University of California, priority 2005, published 2008)

Molecular target: endogenous Akt (UniProt P31749)
Assay: cell-based or functional assay

Chain of endogenous Akt (P31749 whole entry): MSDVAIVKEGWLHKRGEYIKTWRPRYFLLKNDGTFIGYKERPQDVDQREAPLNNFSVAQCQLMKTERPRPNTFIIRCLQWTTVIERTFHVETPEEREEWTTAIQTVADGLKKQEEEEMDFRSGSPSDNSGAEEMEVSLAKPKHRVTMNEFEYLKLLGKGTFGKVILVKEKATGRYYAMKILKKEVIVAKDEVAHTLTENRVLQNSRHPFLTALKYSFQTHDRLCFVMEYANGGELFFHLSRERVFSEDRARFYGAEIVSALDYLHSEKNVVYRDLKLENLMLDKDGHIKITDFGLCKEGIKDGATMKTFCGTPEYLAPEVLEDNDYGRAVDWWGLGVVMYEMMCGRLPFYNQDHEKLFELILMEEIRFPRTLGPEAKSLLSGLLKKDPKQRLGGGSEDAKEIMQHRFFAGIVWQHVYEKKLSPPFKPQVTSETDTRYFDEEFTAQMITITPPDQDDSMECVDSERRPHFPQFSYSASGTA

Row | Substance | increase in Akt phosphorylation at Ser 473 on siRNA knock down of PHLPP2 in 293T cells [fold] | increase in Ser473 phosphorylation on siRNA knock down of PHLPP2 in H157 cells [fold]
1 | endogenous PHLPP2 (from UniProt Q6ZVD8 1-1323) | 2 | –
2 | endogenous PHLPP2 (from UniProt Q6ZVD8 1-1323) (enzyme) | – | 4
